Columns and labels:
[1] = biological target: GABAA receptor alpha-1 subunit (GABRA1) (human) (UniProt P14867); assay: cell-based or functional assay
[2] = biological target: GABAA receptor beta-2 subunit (GABRB2) (human) (UniProt P47870); assay: cell-based or functional assay
Chain of GABAA receptor beta-2 subunit (GABRB2) (human) (P47870 26-512): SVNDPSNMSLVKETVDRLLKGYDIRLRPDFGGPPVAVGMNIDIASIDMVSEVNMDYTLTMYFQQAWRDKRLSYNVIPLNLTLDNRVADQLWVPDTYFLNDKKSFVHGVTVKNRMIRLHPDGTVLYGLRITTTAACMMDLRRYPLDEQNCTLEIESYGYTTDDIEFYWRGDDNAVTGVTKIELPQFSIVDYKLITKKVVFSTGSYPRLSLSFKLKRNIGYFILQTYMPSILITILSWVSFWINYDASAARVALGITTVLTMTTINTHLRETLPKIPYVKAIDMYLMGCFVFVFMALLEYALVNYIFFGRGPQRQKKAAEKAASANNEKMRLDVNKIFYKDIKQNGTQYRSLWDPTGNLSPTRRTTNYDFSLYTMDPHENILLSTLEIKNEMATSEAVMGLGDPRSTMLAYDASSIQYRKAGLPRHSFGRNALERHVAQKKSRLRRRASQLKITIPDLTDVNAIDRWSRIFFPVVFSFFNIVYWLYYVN

Chain of GABAA receptor alpha-1 subunit (GABRA1) (human) (P14867 28-456): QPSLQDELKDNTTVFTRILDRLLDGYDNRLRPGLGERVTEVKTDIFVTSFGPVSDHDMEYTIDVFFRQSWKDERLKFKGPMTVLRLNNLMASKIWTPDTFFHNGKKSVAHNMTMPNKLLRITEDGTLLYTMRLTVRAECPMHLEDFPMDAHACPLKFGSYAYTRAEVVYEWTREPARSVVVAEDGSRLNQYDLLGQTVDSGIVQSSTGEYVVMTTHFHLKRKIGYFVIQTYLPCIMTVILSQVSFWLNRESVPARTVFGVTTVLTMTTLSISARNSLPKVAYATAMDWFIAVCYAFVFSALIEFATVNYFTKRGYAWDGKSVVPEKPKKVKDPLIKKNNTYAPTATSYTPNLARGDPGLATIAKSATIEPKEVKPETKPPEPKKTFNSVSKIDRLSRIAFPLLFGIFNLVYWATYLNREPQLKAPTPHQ

partial inhibition of the GABA current by Zn2+ (10 µM), Xenopus oocytes, two-electrode voltage clamp [1] [%]	partial inhibition of the GABA current by Zn2+ (10 µM), Xenopus oocytes, two-electrode voltage clamp [2] [%]	Substance
40	40	GABAA receptor gamma-2 subunit R43Q mutant, GABRG2(R43Q) (from UniProt P18507 40-475)
37	37	wild-type GABAA receptor gamma-2 subunit (GABRG2) (from UniProt P18507 40-475)
